# Measurements reported in patent US20030049702A1.
# Tests used:
# [1] = target: GST-DR4 (residues 269-468) (UniProt O00220); test: Scatchard analysis: DAP3-His6 at 0.1-1 µM with 1.0 µg GST-DR4 on glutathione-Sepharose, free and bound DAP3 by immunoblot densitometry
# [2] = target: GST-DR4 (residues 269-468) (UniProt O00220); test: GST pull-down on glutathione-Sepharose, immunoblot against input lane
# GST-DR4 (residues 269-468), sequence (O00220 269-468, form in doubt): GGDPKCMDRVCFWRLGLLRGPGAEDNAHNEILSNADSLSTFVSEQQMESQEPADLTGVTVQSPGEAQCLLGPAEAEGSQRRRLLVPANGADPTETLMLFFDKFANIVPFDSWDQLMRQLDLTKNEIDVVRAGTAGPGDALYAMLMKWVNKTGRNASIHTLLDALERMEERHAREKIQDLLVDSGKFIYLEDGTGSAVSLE
substance,measurement,setting,value
DAP3-His6,Kd,[1],16 nM
same,percent of input bound,[2],10 to 20%
